Measured values published in patent US20220372514A1 (SPYBIOTECH, published 2022).
Like-named read-outs stand apart in the source and are kept apart here.

Legend:
[1] = target: hexon protein on the viral capsid of Ad5 vectors with SpyTag inserted into HVR loops (loop not specified); experiment: covalent coupling of SpyCatcher to virions, SDS-PAGE band densitometry (ImageJ)
Ad5-HVR5-DogTag Hexon [2] = target: T1, Ad5-HVR5-DogTag Hexon (human adenovirus serotype 5 (Ad5), UniProt P04133 21-952)
T1 construct: also called HVR5DT; Ad5(GFP) HVR5 DogTag

Ad5-HVR1-DogTag Hexon = target: T2, Ad5-HVR1-DogTag Hexon (human adenovirus serotype 5 (Ad5), UniProt P04133 2-952)
T2 construct: also called HVR1DT; hexon-DogTag

Ad5-HVR2-DogTag Hexon = target: T3, Ad5-HVR2-DogTag Hexon (human adenovirus serotype 5 (Ad5), UniProt P04133 30-952)
T3 construct: also called HVR2DT; hexon-DogTag

Ad5-HVR5-DogTag Hexon [3] = target: T1, Ad5-HVR5-DogTag Hexon; remark: listed apart in the source
Ad5-HVR5-DogTag Hexon [4] = target: T1, Ad5-HVR5-DogTag Hexon; remark: listed apart in the source

Q: For SpyCatcher (designed binder), which % of hexon protein coupled [1] is on record?
A: > 50%

B1: DogCatcher-NANP Domain (other)
chain: MAHHHHHHVGTGKLGDIEFIKVNKNDKKPLRGAVFSLQKQHPDYPDIYGAIDQNGTYQNVRTGEDGKLTFKNLSDGKYRLFENSEPAGYKPVQNKPIVAFQIVNGEVRDVTSIVPQGSGGSGGSNANPNVDPNANPNVDPNANPNVDPNANPNANPNANPNANPNANPNANPNANPNANPNANPNANPNANPNANPNANPNANPNANPNANPNANPNVDPNANPNANPNANPNANPNANPNANPNANPNANPNANPNANPNANPNANPNANPNANPNANPNANPNANPNANP
Q: Does B1 bind (Ad5-HVR5-DogTag Hexon [2])?
A: binds

B2: DogCatcher (designed binder)
chain: MGSSHHHHHHSSGLVPRGSHMKLGDIEFIKVNKNDKKPLRGAVFSLQKQHPDYPDIYGAIDQNGTYQNVRTGEDGKLTFKNLSDGKYRLFENSEPAGYKPVQNKPIVAFQIVNGEVRDVTSIVPQ
notes: His-tagged DogCatcher expressed in E. coli; forms a spontaneous isopeptide bond with DogTag; also called DC; RrgACatcher
Q: B2 was tested. Which “coverage of capsid hexon (%)” value (Ad5-HVR1-DogTag Hexon) did it give?
A: > 90%

Q: And the “coverage of capsid hexon (%)” value (Ad5-HVR2-DogTag Hexon)?
A: > 90%

Q: And the “coverage of capsid hexon (%)” value (Ad5-HVR5-DogTag Hexon [3])?
A: > 90%

B3: DogCatcher-NANP9 (other)
chain: MAHHHHHHVGTGKLGDIEFIKVNKNDKKPLRGAVFSLQKQHPDYPDIYGAIDQNGTYQNVRTGEDGKLTFKNLSDGKYRLFENSEPAGYKPVQNKPIVAFQIVNGEVRDVTSIVPQGSGGSGGSNANPNANPNANPNANPNANPNANPNANPNANPNANP
Q: Does B3 bind (Ad5-HVR5-DogTag Hexon [2])?
A: binds

B4: Biotin-SnoopTagJr (peptide)
peptide: GKLGSIEFIKVNK
modifications: N-terminal biotin
notes: also called SnJr-biotin; Biotinylated SnJr-peptide
Q: Does B4 bind (Ad5-HVR5-DogTag Hexon [4])?
A: binds

B5: DogCatcher-NANP18 (other)
chain: MAHHHHHHVGTGKLGDIEFIKVNKNDKKPLRGAVFSLQKQHPDYPDIYGAIDQNGTYQNVRTGEDGKLTFKNLSDGKYRLFENSEPAGYKPVQNKPIVAFQIVNGEVRDVTSIVPQGSGGSGGSNANPNANPNANPNANPNANPNANPNANPNANPNANPNANPNANPNANPNANPNANPNANPNANPNANPNANP
notes: also called DC-NANP18
Q: Does B5 bind (Ad5-HVR5-DogTag Hexon [2])?
A: binds
